Measured values: patent publication US20230002757A1 (ZHEJIANG NANOMAB TECHNOLOGY CENTER, published 2023)
Numbering of substitutions follows the chain as printed. Numbers in names are those of the source. One block for each binder: values may come before it.

Key:
[1] = target: T1, PD-1 protein (human, UniProt Q15116 25-167, limits assumed); assay: ELISA, PD-1 coated
T1 construct: also called human PD-1
Procedure: 2 μg/ml of PD-1 protein is coated on 96-well plates overnight for ELISA binding assay. Recombinant VHH-FC proteins are added to the wells and allowed to stand for a period of time, then 1 μg/ml of HRP-conjugated anti-FC antibody is added as detection antibody and the assay reagents are added. The absorbance is read at 450 nm. Binding of nivolumab serves as a positive control and plates coated with BSA are used as the negative control group.

[2] = target: T1, PD-1 protein; assay: blocking ELISA, PD-1 coated, competitor biotin PD-L1
Procedure: Each well of 96-well microtiter plates is coated with 2 μg/ml of PD-1 protein in PBS and blocked with 1% BSA. […]
The intensity of the developed color is measured at 450 nm. Wells with no added PD-1 and no added VHH-FC are negative and positive controls, respectively.

[3] = target: T2, EGFR on 293T-EGFR cells (293T cells negative for BCMA expression) (UniProt P00533 25-1210, limits assumed); assay: flow cytometry
T2 construct: whole, on cells; negative control cells; that they carry EGFR is read from the label only

[4] = target: T3, BCMA-His (human, UniProt Q02223 1-54); assay: ELISA, BCMA-His coated 1 ug/mL
T3 construct: coating antigen, 1 ug/mL; also called His-conjugated human BCMA; not shown: His tag
T3 sequence (looked up): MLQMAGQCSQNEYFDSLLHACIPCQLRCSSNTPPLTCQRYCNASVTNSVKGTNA

[5] = target: T4, BCMA on RPMI8226 cells (UniProt Q02223 1-184, limits assumed); assay: FACS on RPMI8226 cells
T4 construct: whole, on cells
T4 sequence (looked up): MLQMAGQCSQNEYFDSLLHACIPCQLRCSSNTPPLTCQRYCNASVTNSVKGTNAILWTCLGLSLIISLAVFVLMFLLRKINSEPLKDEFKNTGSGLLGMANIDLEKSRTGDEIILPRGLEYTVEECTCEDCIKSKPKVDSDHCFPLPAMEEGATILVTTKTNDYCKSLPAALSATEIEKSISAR

[6] = target: T5, Anti-His; assay: ELISA, Anti-His coated 1 ug/mL
T5 construct: ELISA coating control

[7] = target: T2, EGFR on 293T-EGFR cells (293T cells …); assay: FACS on 293T-EGFR cells (BCMA negative)
[8] = target: T6, BCMA-Fc (human, UniProt Q02223 1-54); assay: ELISA, BCMA-Fc coated 1 ug/mL
T6 construct: coating antigen, 1 ug/mL; also called Fc-conjugated human BCMA; not shown: Fc
T6 sequence (looked up): T3 sequence (looked up)

[9] = target: T7, human IgG; assay: ELISA, human IgG coated 1 ug/mL
T7 construct: ELISA coating control

[10] = target: T8, mesothelin (MSLN), full length (UniProt Q13421 296-598, limits assumed); assay: ELISA, supernatant
T8 construct: coating antigen of the ELISA; construct not described
T8 sequence (Q13421 other isoform, or with tags, fused parts or gaps limits assumed): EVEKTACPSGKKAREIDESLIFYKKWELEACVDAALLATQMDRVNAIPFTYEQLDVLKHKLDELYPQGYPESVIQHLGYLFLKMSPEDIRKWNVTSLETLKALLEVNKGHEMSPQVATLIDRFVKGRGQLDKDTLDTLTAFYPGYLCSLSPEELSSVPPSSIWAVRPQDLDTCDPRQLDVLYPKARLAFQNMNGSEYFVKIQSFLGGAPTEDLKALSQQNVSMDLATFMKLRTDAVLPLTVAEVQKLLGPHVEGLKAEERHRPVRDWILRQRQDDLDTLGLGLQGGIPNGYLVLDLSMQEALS

T1 sequence (Q15116 25-167 limits assumed): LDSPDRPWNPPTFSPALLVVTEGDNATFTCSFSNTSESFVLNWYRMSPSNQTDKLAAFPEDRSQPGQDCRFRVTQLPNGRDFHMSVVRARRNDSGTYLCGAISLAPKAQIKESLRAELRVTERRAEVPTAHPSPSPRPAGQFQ

- binding result [10]: no binding
B6: NBL501#006 (VHH)
VHH: QVQLVESGGGLVQAGGSLRLSCAASGSADSIPAMGWYRQAPGKEREYLAAISSGTNTYYASSAKGRFAISRNNANNTLYLQMNSLKPEDTAMYYCATCSSYYYCSGPYVRSWGQGTQVTVSS
notes: tested as supernatant in ELISA

- binding result [10]: no binding
B7: NBL501#011 (VHH)
VHH: QVQLVESGGGLVQAGGSLRLSCAVFGNTGAIHAMAWYRQAPGKQREEVARISFGDGRTVYGDSVKGRFTISGDDAKNTMYLQMNILKAEDTAEYYCNAVFLGIGPTGRFEYEYWGQGTQVTVSS
notes: as for B6

- binding result [10]: no binding
B8: NBL501#003 (VHH)
VHH: QVQLVESGGGLVQPGGSLRLSCAASGITLDYYAIGWFRQAPGKEREGVSCISSSGGSTNYADSVKGRFTMSRDNAKNTVYLQMNSLKPEDTAVYYCAADIHCSGYVLFSPSDFGNWGQGTQVTVSS
notes: as for B6

Continued, binder first:

B1: 504#SS10 (Fc fusion, not shown: a dimerising Fc or GST; small tags and cut ends)
VHH: EVQLVESGGGLVQPGASLRLSCTASGSIFSIYAMGWYRQAPGKQRELVAYITSGGSTTYADSVKGRFTISRDNAKNTVYLQMNSLKPEDTAVYYCNRGNYYRDYKPEFWGQGTQVTVSS
notes: VHH-FC construct from HEK293 cells
- OD450 at 0.002 µg/mL [1]: 0.03 OD450
- OD450 at 0.02 µg/mL [1]: 0.03 OD450
- OD450 at 0.2 µg/mL [1]: 0.03 OD450
- OD450 at 2 µg/mL [1]: 0.04 OD450
- OD450 of PD-L1 bound, antibody at 0.15 µg/mL [2]: 3.27 OD450
- OD450 of PD-L1 bound, antibody at 0.61 µg/mL [2]: 3.24 OD450
- OD450 of PD-L1 bound, antibody at 2.42 µg/mL [2]: 3.28 OD450
- OD450 of PD-L1 bound, antibody at 9.75 µg/mL [2]: 3.32 OD450

B2: 504#SS9 (Fc fusion)
VHH: EVQLQESGGGLVQAGGSLRLSCAASGRSFSGYAMAWFRQAPGKEREFVAAVNWNGGSTYYADSVKGRFTISRDNAKDTVYLQMNSLKPEDTAVYYCNARPTFGAYYSDYKSGVDYWGQGTQVTVSS
notes: VHH-FC construct from HEK293 cells; not shown: The (G4S)3 linker leading to it is left out with it
- OD450 at 0.002 µg/mL [1]: 0.03 OD450
- OD450 at 0.02 µg/mL [1]: 0.03 OD450
- OD450 at 0.2 µg/mL [1]: 0.03 OD450
- OD450 at 2 µg/mL [1]: 0.04 OD450
- OD450 of PD-L1 bound, antibody at 0.15 µg/mL [2]: 3.42 OD450
- OD450 of PD-L1 bound, antibody at 0.61 µg/mL [2]: 3.36 OD450
- OD450 of PD-L1 bound, antibody at 2.42 µg/mL [2]: 3.46 OD450
- OD450 of PD-L1 bound, antibody at 9.75 µg/mL [2]: 3.32 OD450

B3: NBL507-A2L1-P1R2-1C1-(273)-PME207-SEQF_E11 (VHH)
VHH: QVQLVESGGGLVHPGGSLRLDCAVSERIASFNVMGWYRQAPGQQREVVATITSVGRTYYADSVKGRFTIAKDNDKNTYLQMNSLKPEDTAVYYCKAVIVGTYDTEYWGQGTLVTVSS
notes: purified VHH
- binding result [3]: no binding
- OD450 [4]: 2.28 OD450
- MFI [5]: 764 MFI
- OD450 [6]: 0.71 OD450
- MFI [7]: 222 MFI
- OD450 [8]: 3.12 OD450
- OD450 [9]: 0.03 OD450

B4: NBL507-A2L1-P1R2-1H1-(275)-PME207-SEQF_G11 (VHH)
VHH: B3 VHH with D21A, V24A, A29L, A70F, D74G, N82S, I98T, T101D, Y102V, L112Q
notes: purified VHH
- binding result [3]: no binding
- OD450 [4]: 2.11 OD450
- MFI [5]: 532 MFI
- OD450 [6]: 0.98 OD450
- MFI [7]: 222 MFI
- OD450 [8]: 3.3 OD450
- OD450 [9]: 0.04 OD450

B5: 504#SS13 (Fc fusion, not shown: a dimerising Fc or GST; small tags and cut ends)
VHH: EVQVVESGGGSVQPGGSLRLSCAASGRGFTEHAMGWYRQSPGKEREFVAGISSGGSTYYADSVKGRFTVSRDSAGNTVALQMDSLKPEDTAVYYCSYKRGRYPDGVSTLEYWGQGTQVTVSS
notes: as for B1
- OD450 at 0.002 µg/mL [1]: 0.03 OD450
- OD450 at 0.02 µg/mL [1]: 0.03 OD450
- OD450 at 0.2 µg/mL [1]: 0.03 OD450
- OD450 at 2 µg/mL [1]: 0.03 OD450
- OD450 of PD-L1 bound, antibody at 0.15 µg/mL [2]: 3.34 OD450
- OD450 of PD-L1 bound, antibody at 0.61 µg/mL [2]: 3.33 OD450
- OD450 of PD-L1 bound, antibody at 2.42 µg/mL [2]: 3.29 OD450
- OD450 of PD-L1 bound, antibody at 9.75 µg/mL [2]: 3.33 OD450
